# Measurements as given in CN111840217A (BEIJING EASTERN BIOTECH CO LTD, dated 2020).
# T1: 人皮肤成纤维细胞(HDF)上的IL-17RA (UniProt Q96F46 33-866, limits assumed)
# T1 sequence (looked up): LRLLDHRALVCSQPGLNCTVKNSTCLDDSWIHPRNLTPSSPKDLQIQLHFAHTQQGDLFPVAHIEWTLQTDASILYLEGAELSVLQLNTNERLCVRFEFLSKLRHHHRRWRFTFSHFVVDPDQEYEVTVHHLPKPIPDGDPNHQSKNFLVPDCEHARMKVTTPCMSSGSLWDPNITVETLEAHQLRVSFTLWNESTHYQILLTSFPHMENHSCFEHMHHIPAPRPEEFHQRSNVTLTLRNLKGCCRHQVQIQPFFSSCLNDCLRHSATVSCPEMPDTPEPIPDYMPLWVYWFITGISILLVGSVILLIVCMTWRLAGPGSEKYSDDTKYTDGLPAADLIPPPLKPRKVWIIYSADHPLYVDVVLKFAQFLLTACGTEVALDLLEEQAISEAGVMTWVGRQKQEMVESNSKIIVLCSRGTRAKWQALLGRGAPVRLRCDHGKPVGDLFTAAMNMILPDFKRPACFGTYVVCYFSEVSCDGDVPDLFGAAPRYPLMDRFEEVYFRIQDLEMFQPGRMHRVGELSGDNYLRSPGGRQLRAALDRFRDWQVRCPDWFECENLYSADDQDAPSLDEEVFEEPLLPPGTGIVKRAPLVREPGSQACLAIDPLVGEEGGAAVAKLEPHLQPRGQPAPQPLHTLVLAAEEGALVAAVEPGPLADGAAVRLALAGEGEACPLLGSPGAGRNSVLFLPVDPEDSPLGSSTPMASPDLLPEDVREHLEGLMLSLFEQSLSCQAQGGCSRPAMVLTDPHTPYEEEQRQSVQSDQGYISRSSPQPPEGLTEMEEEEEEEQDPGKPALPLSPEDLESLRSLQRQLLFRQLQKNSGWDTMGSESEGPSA
# Target: T1, 人皮肤成纤维细胞(HDF)上的IL-17RA
# Assay: cell-based or functional assay
row,抑制HDF细胞产生IL-6 IC50(ng/ml) [ng/mL],Binder
1,117,"上市产品Brodalumab的全抗体 (antibody, V domains shown) VH: QVQLVQSGAEVKKPGASVKVSCKASGYTFTRYGISWVRQAPGQGLEWMGWISTYSGNTNYAQKLQGRVTMTTDTSTSTAYMELRSLRSDDTAVYYCARRQLYFDYWGQGTLVTVSS VL: EIVMTQSPATLSVSPGERATLSCRASQSVSSNLAWFQQKPGQAPRPLIYDASTRATGVPARFSGSGSGTDFTLTISSLQSEDFAVYYCQQYDNWPLTFGGGTKVEIK"
2,35.8,"mAb-4全抗体 (antibody, human IgG1, kappa, V domains shown) VH: QVQLVQSGAEVKKPGASVKVSCKASGYAYSNYGISWVRQAPGQGLEWMGWISTYSGNTNYAKKFIGRVTMTTDTSTSTAYMELRSLRSDDTAVYYCARRVLRLDYWGQGTLVTVSS VL: DIQMTQSPSSLSASVGDRVTITCRASQDIDSSLNWYQQKPGKAPKLLIYAASNRESGVPSRFSGSGSGTDFTLTISSLQPEDFATYYCQQWANMPGTFGQGTKVEIKR"
3,24.8,"mAb-9全抗体 (antibody, human IgG1, kappa, V domains shown) VH: QVQLVQSGAEVKKPGASVKVSCKASGYTWTSYGISWVRQAPGQGLEWMGWISTYSGNTNYAKKFLGRVTMTTDTSTSTAYMELRSLRSDDTAVYYCARRVLRLDYWGQGTLVTVSS VL: DIQMTQSPSSLSASVGDRVTITCRASQSVHTGLNWYQQKPGKAPKLLIYGASNLQSGVPSRFSGSGSGTDFTLTISSLQPEDFATYYCQQFEHNPLTFGQGIKVEIKR"
4,33.4,"mAb-6全抗体 (antibody, human IgG1, kappa, V domains shown) VH: QVQLVQSGAEVKKPGASVKVSCKASGYSFTRYGISWVRQAPGQGLEWMGWISTYSGNTNYAKQFKGRVTMTTDTSTSTAYMELRSLRSDDTAVYYCARRVLRLDYWGQGTLVTVSS VL: EIVMTQSPATLSVSPGERATLSCRASQDISISLGWFQQKPGQAPRPLIYGWNTRATGVPARFSGSGSGTDFTLTISSLQSEDFAVYYCQQYSDPFLTFGGGTKVEIKR"
5,22.9,"mAb-5全抗体 (antibody, human IgG1, kappa, V domains shown) VH: QVQLVQSGAEVKKPGASVKVSCKASGFAFTRYGISWVRQAPGQGLEWMGWISTYSGNTNYADQFIGRVTMTTDTSTSTAYMELRSLRSDDTAVYYCARRVLRLDYWGQGTLVTVSS VL: DIQMTQSPSSLSASVGDRVTITCRASQDIDSSLNWYQQKPGKAPKLLIYAASNRESGVPSRFSGSGSGTDFTLTISSLQPEDFATYYCQQWANMPGTFGQGTKVEIKR"
6,60.8,"mAb-11全抗体 (antibody, human IgG1, kappa, V domains shown) VH: QVQLVQSGAEVKKPGASVKVSCKASGYAWTRYGISWVRQAPGQGLEWMGWISTYSGNTNYAKKFKGRVTMTTDTSTSTAYMELRSLRSDDTAVYYCARRVLRLDYWGQGTLVTVSS VL: DIQMTQSPSSLSASVGDRVTITCRASQSVHTGLNWYQQKPGKAPKLLIYGASNLQSGVPSRFSGSGSGTDFTLTISSLQPEDFATYYCQQFEHNPLTFGQGIKVEIKR"
7,36.4,"mAb-10全抗体 (antibody, human IgG1, kappa, V domains shown) VH: QVQLVQSGAEVKKPGASVKVSCKASGYSFSSYGISWVRQAPGQGLEWMGWISTYSGNTNYAKKFKGRVTMTTDTSTSTAYMELRSLRSDDTAVYYCARRVLRLDYWGQGTLVTVSS VL: DIQMTQSPSSLSASVGDRVTITCRASQSVHTGLNWYQQKPGKAPKLLIYGASNLQSGVPSRFSGSGSGTDFTLTISSLQPEDFATYYCQQFEHNPLTFGQGIKVEIKR"
8,22.7,"mAb-2全抗体 (antibody, human IgG1, kappa, V domains shown) VH: QVQLVQSGAEVKKPGASVKVSCKASGYAWTRYGISWVRQAPGQGLEWMGWISTYSGNTNYAKKFKGRVTMTTDTSTSTAYMELRSLRSDDTAVYYCARRVLRLDYWGQGTLVTVSS VL: DIQMTQSPSSLSASVGDRVTITCRASQDIDSSLNWYQQKPGKAPKLLIYAASNRESGVPSRFSGSGSGTDFTLTISSLQPEDFATYYCQQWANMPGTFGQGTKVEIKR"
9,28.4,"mAb-1全抗体 (antibody, human IgG1, kappa, V domains shown) VH: QVQLVQSGAEVKKPGASVKVSCKASGYSYSNYGISWVRQAPGQGLEWMGWISTYSGNTNYSKKLKGRVTMTTDTSTSTAYMELRSLRSDDTAVYYCARRVLRLDYWGQGTLVTVSS VL: DIQMTQSPSSLSASVGDRVTITCRASQDIDSSLNWYQQKPGKAPKLLIYAASNRESGVPSRFSGSGSGTDFTLTISSLQPEDFATYYCQQWANMPGTFGQGTKVEIKR"
10,33.4,"mAb-3全抗体 (antibody, human IgG1, kappa, V domains shown) VH: QVQLVQSGAEVKKPGASVKVSCKASGYAFSRFGISWVRQAPGQGLEWMGWISTYSGNTNYAKHLLGRVTMTTDTSTSTAYMELRSLRSDDTAVYYCARRFLKFDYWGQGTLVTVSS VL: DIQMTQSPSSLSASVGDRVTITCRASQDIDSSLNWYQQKPGKAPKLLIYAASNRESGVPSRFSGSGSGTDFTLTISSLQPEDFATYYCQQWANMPGTFGQGTKVEIKR"
11,29.7,"mAb-7全抗体 (antibody, human IgG1, kappa, V domains shown) VH: QVQLVQSGAEVKKPGASVKVSCKASGYTFTSYGISWVRQAPGQGLEWMGWISTYSGNTNYAKNLQGRVTMTTDTSTSTAYMELRSLRSDDTAVYYCARRVLRLDYWGQGTLVTVSS VL: EIVMTQSPATLSVSPGERATLSCRASQDISISLGWFQQKPGQAPRPLIYGWNTRATGVPARFSGSGSGTDFTLTISSLQSEDFAVYYCQQYSDPFLTFGGGTKVEIKR"
12,13.5,"mAb-8全抗体 (antibody, human IgG1, kappa, V domains shown) VH: QVQLVQSGAEVKKPGASVKVSCKASGYGFASRGISWVRQAPGQGLEWMGWISTYSGNTNYAKKFEGRVTMTTDTSTSTAYMELRSLRSDDTAVYYCARRVLRLDYWGQGTLVTVSS VL: DIQMTQSPSSLSASVGDRVTITCRASQSVHTGLNWYQQKPGKAPKLLIYGASNLQSGVPSRFSGSGSGTDFTLTISSLQPEDFATYYCQQFEHNPLTFGQGIKVEIKR"
